Experimental data published in the Human Domainome abundance scans (Beltran et al. 2025).
± gives the uncertainty stated by the source.

B1: Zinc finger MYM-type protein 3, residues 589 to 668; numbered along this chain, Q14202 (parent)
chain: LSCHYCHSLFSGKPEVLDWQDQVFQFCCRDCCEDFKRLRGVVSQCEHCRQEKLLHEKLRFSGVEKSFCSEGCVLLYKQDF

Variants of: B1
Experiment: abundance fitness (aPCA) (normalised: wild type 0, dead -1); higher = more abundant; growth selection in yeast, the domain comes from the species named
Conditions: Homo sapiens

Variant	abundance fitness
LSCHYCHSLFSGKPEVLDWQDQVFQFCCYDCCEDFKRLRGVVSQCEHCRQEKLLHEKLRFSGVEKSFCSEGCVLLYKQDF	0.26 ± 0.069
LSCHYCHSLFSGKPEVLDWQDQVFQFCCRWCCEDFKRLRGVVSQCEHCRQEKLLHEKLRFSGVEKSFCSEGCVLLYKQDF	-0.227 ± 0.05
LSCHYCHSLFSGKPEVLDWQDQVFQFCCRLCCEDFKRLRGVVSQCEHCRQEKLLHEKLRFSGVEKSFCSEGCVLLYKQDF	-0.012 ± 0.041
LSCHYCHSLFSGKPEVLDWQDQVFQFCCRYCCEDFKRLRGVVSQCEHCRQEKLLHEKLRFSGVEKSFCSEGCVLLYKQDF	-0.164 ± 0.091
LSCHYCHSLFSGKPEVLDWQDQVFQFCCRICCEDFKRLRGVVSQCEHCRQEKLLHEKLRFSGVEKSFCSEGCVLLYKQDF	-0.243 ± 0.088
LSCHYCHSLFSGKPEVLDWQDQVFQFCCRQCCEDFKRLRGVVSQCEHCRQEKLLHEKLRFSGVEKSFCSEGCVLLYKQDF	-0.036 ± 0.054
LSCHYCHSLFSGKPEVLDWQDQVFQFCCRGCCEDFKRLRGVVSQCEHCRQEKLLHEKLRFSGVEKSFCSEGCVLLYKQDF	0.057 ± 0.038
LSCHYCHSLFSGKPEVLDWQDQVFQFCCRCCCEDFKRLRGVVSQCEHCRQEKLLHEKLRFSGVEKSFCSEGCVLLYKQDF	0.008 ± 0.053
LSCHYCHSLFSGKPEVLDWQDQVFQFCCRNCCEDFKRLRGVVSQCEHCRQEKLLHEKLRFSGVEKSFCSEGCVLLYKQDF	-0.069 ± 0.1
LSCHYCHSLFSGKPEVLDWQDQVFQFCCRKCCEDFKRLRGVVSQCEHCRQEKLLHEKLRFSGVEKSFCSEGCVLLYKQDF	0.104 ± 0.062
LSCHYCHSLFSGKPEVLDWQDQVFQFCCRFCCEDFKRLRGVVSQCEHCRQEKLLHEKLRFSGVEKSFCSEGCVLLYKQDF	-0.263 ± 0.076
LSCHYCHSLFSGKPEVLDWQDQVFQFCCRECCEDFKRLRGVVSQCEHCRQEKLLHEKLRFSGVEKSFCSEGCVLLYKQDF	0.014 ± 0.046
LSCHYCHSLFSGKPEVLDWQDQVFQFCCRTCCEDFKRLRGVVSQCEHCRQEKLLHEKLRFSGVEKSFCSEGCVLLYKQDF	0.131 ± 0.044
LSCHYCHSLFSGKPEVLDWQDQVFQFCCRMCCEDFKRLRGVVSQCEHCRQEKLLHEKLRFSGVEKSFCSEGCVLLYKQDF	0.3 ± 0.045
LSCHYCHSLFSGKPEVLDWQDQVFQFCCRSCCEDFKRLRGVVSQCEHCRQEKLLHEKLRFSGVEKSFCSEGCVLLYKQDF	0.055 ± 0.043
LSCHYCHSLFSGKPEVLDWQDQVFQFCCRACCEDFKRLRGVVSQCEHCRQEKLLHEKLRFSGVEKSFCSEGCVLLYKQDF	0.027 ± 0.043
LSCHYCHSLFSGKPEVLDWQDQVFQFCCRVCCEDFKRLRGVVSQCEHCRQEKLLHEKLRFSGVEKSFCSEGCVLLYKQDF	0.109 ± 0.04
LSCHYCHSLFSGKPEVLDWQDQVFQFPCRDCCEDFKRLRGVVSQCEHCRQEKLLHEKLRFSGVEKSFCSEGCVLLYKQDF	-0.483 ± 0.062

Variant	abundance fitness
LSCHYCHSLFSGKPEVLDWQDQVFQFVCRDCCEDFKRLRGVVSQCEHCRQEKLLHEKLRFSGVEKSFCSEGCVLLYKQDF	-0.692 ± 0.06
LSCHYCHSLFSGKPEVLDWQDQVFQFMCRDCCEDFKRLRGVVSQCEHCRQEKLLHEKLRFSGVEKSFCSEGCVLLYKQDF	-0.472 ± 0.07
LSCHYCHSLFSGKPEVLDWQDQVFQFWCRDCCEDFKRLRGVVSQCEHCRQEKLLHEKLRFSGVEKSFCSEGCVLLYKQDF	-0.859 ± 0.072
LSCHYCHSLFSGKPEVLDWQDQVFQFNCRDCCEDFKRLRGVVSQCEHCRQEKLLHEKLRFSGVEKSFCSEGCVLLYKQDF	-0.706 ± 0.099
LSCHYCHSLFSGKPEVLDWQDQVFQFQCRDCCEDFKRLRGVVSQCEHCRQEKLLHEKLRFSGVEKSFCSEGCVLLYKQDF	-0.653 ± 0.075
LSCHYCHSLFSGKPEVLDWQDQVFQFYCRDCCEDFKRLRGVVSQCEHCRQEKLLHEKLRFSGVEKSFCSEGCVLLYKQDF	-0.798 ± 0.32
LSCHYCHSLFSGKPEVLDWQDQVFQFRCRDCCEDFKRLRGVVSQCEHCRQEKLLHEKLRFSGVEKSFCSEGCVLLYKQDF	-0.756 ± 0.055
LSCHYCHSLFSGKPEVLDWQDQVFQFSCRDCCEDFKRLRGVVSQCEHCRQEKLLHEKLRFSGVEKSFCSEGCVLLYKQDF	-0.892 ± 0.086
LSCHYCHSLFSGKPEVLDWQDQVFQFCCRDMCEDFKRLRGVVSQCEHCRQEKLLHEKLRFSGVEKSFCSEGCVLLYKQDF	-0.778 ± 0.14
LSCHYCHSLFSGKPEVLDWQDQVFQFCCRDPCEDFKRLRGVVSQCEHCRQEKLLHEKLRFSGVEKSFCSEGCVLLYKQDF	-1.02 ± 0.18
LSCHYCHSLFSGKPEVLDWQDQVFQFCCRDQCEDFKRLRGVVSQCEHCRQEKLLHEKLRFSGVEKSFCSEGCVLLYKQDF	-0.668 ± 0.1
LSCHYCHSLFSGKPEVLDWQDQVFQFCCRDICEDFKRLRGVVSQCEHCRQEKLLHEKLRFSGVEKSFCSEGCVLLYKQDF	-1.02 ± 0.26
LSCHYCHSLFSGKPEVLDWQDQVFQFCCRDDCEDFKRLRGVVSQCEHCRQEKLLHEKLRFSGVEKSFCSEGCVLLYKQDF	-0.545 ± 0.12
LSCHYCHSLFSGKPEVLDWQDQVFQFCCRDGCEDFKRLRGVVSQCEHCRQEKLLHEKLRFSGVEKSFCSEGCVLLYKQDF	-0.8 ± 0.078
LSCHYCHSLFSGKPEVLDWQDQVFQFCCRDACEDFKRLRGVVSQCEHCRQEKLLHEKLRFSGVEKSFCSEGCVLLYKQDF	-0.655 ± 0.072
LSCHYCHSLFSGKPEVLDWQDQVFQFCCRDRCEDFKRLRGVVSQCEHCRQEKLLHEKLRFSGVEKSFCSEGCVLLYKQDF	-0.901 ± 0.08
LSCHYCHSLFSGKPEVLDWQDQVFQFCCRDECEDFKRLRGVVSQCEHCRQEKLLHEKLRFSGVEKSFCSEGCVLLYKQDF	-0.573 ± 0.096
